Measured values from IntAct's records for PubMed 19503079.

What was measured:
atxr5_arath ATXR5 = molecular target: T1, atxr5_arath ATXR5 (UniProt Q8VZJ1)
T1 sequence: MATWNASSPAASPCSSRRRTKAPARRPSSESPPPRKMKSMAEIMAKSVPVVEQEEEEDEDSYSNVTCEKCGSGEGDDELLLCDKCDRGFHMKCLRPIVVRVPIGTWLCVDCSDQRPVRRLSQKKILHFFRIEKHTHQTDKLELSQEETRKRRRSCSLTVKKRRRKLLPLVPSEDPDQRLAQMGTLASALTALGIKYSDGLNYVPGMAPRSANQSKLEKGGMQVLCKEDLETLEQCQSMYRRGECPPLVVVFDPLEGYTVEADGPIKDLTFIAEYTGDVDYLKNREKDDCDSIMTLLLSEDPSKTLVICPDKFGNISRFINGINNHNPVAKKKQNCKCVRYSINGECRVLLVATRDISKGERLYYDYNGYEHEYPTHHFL

atxr6_arath ATXR6 = molecular target: T2, atxr6_arath ATXR6 (UniProt Q9FNE9)
T2 sequence: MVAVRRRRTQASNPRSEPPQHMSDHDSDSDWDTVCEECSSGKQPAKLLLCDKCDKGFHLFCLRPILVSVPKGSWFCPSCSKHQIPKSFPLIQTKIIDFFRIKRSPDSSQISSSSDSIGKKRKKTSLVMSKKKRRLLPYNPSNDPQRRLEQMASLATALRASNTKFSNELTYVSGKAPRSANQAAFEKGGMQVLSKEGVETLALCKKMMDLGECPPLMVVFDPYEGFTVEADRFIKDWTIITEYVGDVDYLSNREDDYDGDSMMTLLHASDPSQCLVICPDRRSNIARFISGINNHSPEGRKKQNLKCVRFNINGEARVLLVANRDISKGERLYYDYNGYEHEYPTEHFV

effect of a mutation on the interaction (atxr5_arath ATXR5): disrupting interaction | effect of a mutation on the interaction (atxr6_arath ATXR6): disrupting interaction
Substance: Histone H3.1 (Arabidopsis thaliana (Mouse-ear cress)) (from UniProt P59226) K28A
